# Assay: label from the status in PepcDB records
row,Sequence,protein production
1,MHIHILGICGTFMGSLALLARALGHTVTGSDANIYPPMSTQLEQAGVTIEEGYLIAHLQPAPDLVVVGNAMKRGMDVIEYMLDTGLRYTSGPQFLSEQVLQSRHVIAVAGTHGKTTTTTMLAWILHYAGIDAGFLIGGVPLVNTTDTNLQQVFAHSSYLGTEKDDSDNSVNTGYFVIEADEYDSAFFDKRSKFVHYRPRTAILNNLEFDHADIFADLDAIQTQFHHMVRMIPSTGKIIMPAATISLEDTLAKGVWTPIWRTSVIDSTISSVRREDSPLENSQAENSSDWQAELISADGSQFTVSFNDNKEATALVNWSMSGLHNVNNALVAIAAAYNIGVSVKTACAALSAFAGIKRRMELIGDVNDILVFDDFAHHPTAITTTLDGAKKKLADRRLWAIIEPRSNTMKMGIHQDSLAQSATLADHTLWYEPTGLEWGLKEVIDNATIANPSIGSQQVLSSVDDIIKHICTHAKAGDAIVIMSNGGFEGIHQRLLTALGNIVAIL,not failed
2,MLVAAACFTIMNVLIKEASAKFALGSGELVFWRMLFSTVALGAAAVLRRDTFRTPHWKNHLNRSMVGTGAMLLLFYAVTHLPLATGVTLSYTSSIFLAVFSFLILKERISVYTQAVLLLGFAGVVLLLNPSFRSGQETAALAGLAGGAMSGWAYLKVRELSLAGEPGWRVVFYLSVTGVAMSSVWATLTGWHTLSFPSAVYLSCIGVSALIAQLSMTRAYKVGDKFTVASLSYMTVVFSALSAAFFLGEELFWQEILGMCIIILSGILSSIRPTAFKQRLQSLFRQR,failed
3,MTCDQIPGRMRVKAERTPFRCPTPVKRKKAMSSAMPQPETTPILACTVSRDVQNFDLLIEDMEAAMGESWGDLGFAEALAFFGQPESESLEFIALAIDTEDEDNLVLMGEIITQAKSRGIKVILIAEDVTPASLHQLLRKGADEFVPYPLPERELQSAIDRMSKPEPEQAQTHHNTAHLNKGAAREGALIVVHGLAGGTGSTTMAVNLAWELANIGGEDAPSVCLMDLDLQHGSVSTYLDLPRREAVFEMLSETQSMDEEVFGQALLSFEDKLQVLTAPSDMVPLDILSPEDIQRVIEMARAHFDYVIVDMPKTLVQWSETILQAAHVYFAMIELDMRSAQNALRMKRALQSEDLPFNKLRFALNKAPKFTDLSGKSRVKRMGESLGISIDLQLPDGGKQVTQGADHGLPLATSAPKNPLRREIAKLAQSLHELGRSDAKAA,failed
4,GVDRWPEYYPETGRDIWIDSVMRQEYLWYRDMPSPAAPDYFQKPEAFLKKAVASMDNGFSKIDSLLDEPIPSYGFDYTLYKVLDNDTAYNALISYVVPGSPAEEAGLQRGHWIMMMNGDYITKKVESELLQGSTRQLQIGVYKEVVGEDGEVTGGVVPIGETTMPASRSLVDKPVHRFEIIPWNGKKVGYLMYNEFKAGPTTDSQAYNDDLRRAFRDFQTGGVNEFVLDLRYNTGGSLDCAQLLCTMLAPADKMNQLLALLRYSDKRVEANQDLTFNPELIQSGANLNLSTVYVLTTNATRGAAEMVINCLNPYMKVVLIGTKTAGEYVATKPFVHPTDRFILNLVVCNVYNAEEKSDYATGFKPTYEYNEDSYLSTYLPFGNTNETLLNAALKIMSGITDK,not failed
5,QGPVGTRIRLALGQDVEAANALMATTGDGVRIIPVLATAIEDGSASSAMLAGLGGIGTNAYHEAASHTFTDRPMNEALTTVSLTLVAADEEDRIVGVLSATAPGTLIDMAMSNGFTAEKAMALSLFVAKIHGLAVAEHARGQGIAAALLKRTWQVYQQLGYMLLYGSYEADRDLAAFYTRSGYTVHAPG,failed
6,MKTSFSIRIAFFFILSFLAVSCHRDTDALNMTFSKVEKCMDLCPDSALNLLKGIHDPEKLWGESQATYALLMTQAMDKNYMKFSSDSLIALALNYYTITQTSPIMYAKALFYHGRVMLELDKEEEALKSFLAAKDVYERTKDHKMLALIAEEVGMINRKQDLYDDALTNFREALTTYKQLKDSLSVISASLNIARVYLFKSEWDSCSLYYNNALEIAVQKNYLSEITILHELGILYRSMQNLSEAERYFLAAYEKETDEEKKYMECLSLGYLYMQMGQTENARKYLIMSANSSKAYTQISAYDCLYFLEKDIDNFEEAIVYHELADSITNAMEELNSRELIASLQKKYENEKLRNDNLQMKVRYTNFILWGTIAFLFVVACMCYYYYKNRNNKKKIAEIELQIQENEEEIERYQQEIEDIQISKDQVLKENLMLEENRTKVGELNGKIVLLTMQNKTLSEHLKELGGELNVGISSGSFIHAFRLLLAIKEGTLRGKLSNEERQKLFSLFDLIYWNYVSRLLERAPTLTKHDLEICCFLKFGLSHEELSCIFHTTSDSVTRAKGRLKGRLGISPQDDLDLFLKEF,failed
7,MTFRESVPFIVAIAATIPGILLRVVHPDISPLLMASLTGLAILGASFMLMWACEVAQMDIPQTLALAVVALIAVLPEYAVDMYFTWMAGQHPESNYAHYAIANMTGANRLLIGIGWSAIAILYALRFRKAVQLEEERRSELLFLALATAYALVIPLKGTLEWYDGVILVSLYVWYIRIASKRPCTDCEVEGPAEALAHLPRNTRRLTTLGLFLFAAGVILCDAELFSESLVASGKVLGINEFLLVQWLAPIASEAPEFIVAIMFATRGQASLALGSLISSKLNQWTLLVGMIPGVFAVSSGSINPPMPMDDHQMHELLLTAAQSLFAVVLLARMRLGLRGALVLLALFIGQFAAPLYEPYVENLLGIPHMPDGLHIVYSGLYIALALGMMLYRPGRLLQLREGLKV,failed
8,MKRERSDFEESLKNIDIAKCLMILAQTSMVKQIGLNQHTESHTSNQFECKTCNKRFSSFQALGGHRASHKKPKLTVEQKDVKHLSNDYKGNHFHKCSICSQSFGTGQALGGHMRRHRSSMTVEPSFISPMIPSMPVLKRCGSSKRILSLDLNLTPLENDLEYIFGKTFVPKIDMKFVL,failed
9,GMTTRVLALDALVPIVAADNPVPRVSTPDLARALSGEISNWKELGGPDMPLVLHALARDISLEAALEARLGRPIAAEITHPDLASLAAAVARDPYALAITGQTARGAARVLPLTDSCGFPLVPSPLAVKSED,failed
10,MVPYLDGEDVAGVQSRVRMYNADENLLTKMQDIEFALFGNLIMRSRMKMGVPAFLGGNGQLVKRRAVEEIGGWDGYAVTEDLNLSVKLMLRGYDVKFSSEAEVFQEAVGDWPAFFRQRTRWLIGNLETLFVYLAPLIDAPITLHRKLDSLFYLFSMLFIGFVMLGYVVFILNLAGFTLRMNAPFIIGIISTIAFFPLVITGIRRDGYSLPRTLILSIEYWAYCLYLLPLFIVAAVHMIRRRERRWAKTFHTG,failed
11,MPGWHAGGKPACRVPLLTKTGRFKRPVFSSSLSATPRFVAALRSTLLYEGAQHMLKLFVRNLPPQTTEAGLKELFTGYGKVFELQLSRDMFTGKARGTASVSMEGHEARKAIEALDGSDYEGKTIYVALDKGPRSGGRGRR,failed
12,MATTTSAACPIFSLSLLGRFVLTGPDGAVSLPNKKLAGLLAFLACMAPDPQSREKLSTLLWGSYLDAQAKQNLRQALFKLRQILGQDALRSDGELVSLNAMVIACDVSQFEELVQDGSRDALSAAADLYRGRLADDISVGEECWSEWVAGERERLSELALGAMVTLGGHELSEGRAEQALRTGQRANALNNLREDSHRLIMRALSATGRNAEALKYYRDVVALLKRELSTEPDLATRSLAAELRSNHPQNAAPAAGEVAPEASPPPALVMHGERPSLVVLPFSNMSGDPEQDYFADGVTADIITALSRFRALVVIARGTSFALRDKGMTSQQIAQQLGVQYVLSGQIRKAGNRIRVSAELTHSGSEAQVWSDRYDRPLTDIFDLQDDVSSSVAAVVDPAVRSAEIERARRKPPTNLSAYDLYLRALHHLWGGTREDITKAIDLLRQSLSLDEARSPTLAALAWGLVMASPLGAHTSPDATTEALSLARRAVEQDGTDAFAHAVYGFTLFGPAGDNDQGRIHAVEAVRLNPSSAFAWGTLGMIDSMAGDYENAVTCLHRSLVLSPYDSMLHLWMTGLTASCFALGRHEDGIAWARKSVQHNPGNGTGHRMLAANLVAAGRLEEAREITRRRDATQKTTIRDLRAMRFFKQNDALERYLSAQQVAGVAD,failed
13,MPKKDNFSILLMGIDARPGQSMDKERSDAMVLATFNRKDKSVKLLSIPRDSYVNIPGRGYDKITHAHSLGGRDLSTETVENLLDIPVDYVMEANFSAFKEVVDELGGVPITIKEDYIVRQIKKDTKGKVNLQTGEQTLGGEEALAYVRTRKADTDLKRGERQMEVIKSIINKSKSLTSIPAYDDILDTVGKNVSMNLSLNDAIGLIPFMTSIQTVDTLQLKGSDYQPGKVYYFQLDQENLNEIKQELKQQLDVLEHHHHHH,not failed
14,MINSVGVVRKEAENCNCLQVFFVSGSFKVDSVEAKKKEENFRETLRDMANSKYEYVKSFELEDEVMLPNLMVVRIDGRDFSRFSQVHEFEKPNDETALNLMNSCSAAVLEEFPDIIFAYGYSDEYSFVFKKTSRFYQRRASKILSLVASFFAAVYVTKWKEFFPQRKLLYAPSFSSKVVSCASAEVLQAYLAWRQQDCHANNQYDTCFWMLVKSGKSVSETQEILKDTQKQQKNELLFQKFGINYKTLPELFRQGSCLFKKKVEETVKHDENGNPVKRLRRKAVFVHSENIAGRSFWNEQPSLYNDLGHFTKDIGKIEPDFIRSFQFENKLLPLTWVVVRIDGCHFHRFSDVHEFEKPNDEQALKLMNSCAVAVLEEFEDIHFAYGVSDEYSFVLKKESELYKRQSSKIISAVASFFTSTYVLQWGEFFPHKELKYPPSFDGRAVCYPTYNILLDYLAWRQVDCHINNQYNTCFWMLVKSGKNKTQSQDYLKGTQTREKNELLSRQFGIEYNSLPVIFRMGSSVFRLKEAENGVVSGKKLEGEVVVDHCNIIERCFWEEHLHILSYS,failed
15,MHPTIARMQEVVAKGDESLIHALLAEDVRFMPPTYYKTWTGRDPVAAVLGHVGQVFSEFRYRRIMGEGKDWALEFQCKVGELDAVGVDLITLNEGGLIQDFEVVMRPYKTVGALRDAMNARVMTDARFLKYREALS,not failed
16,MFDRLKTMLIKEAIQILRDPKMRFIILVIPAIQITLFGYAVNTDVKHIATAVYDLDNSALSRDLVARLERSGYFDIVQRVQRGDELRDLLDRGKVRAAVQINRGFEENIRAGRTATLPIIVDGTDPSTARIVVSYSVTIAERFSDQILTDYSLRKSGRTTGGNGIELESRAWFNANLESRNYYVPGVIASMVLITTMMLSSMAVVREKEIGTMEQIIVTPIQRWEFIVGKLVPFAIVGYINVTIVTCIALFWFKIPLRGSILLLIGSTALFLMSTLGFGLLISTISRTQQQAMMSSFMFTFPAMLLSGFAFPIENMPTSIQYATYLNPLRYYLVIVRGIFLKGIGLGILWPQLAALALLGSVVLLFAVGRFKKSVG,failed
17,DIEALTLLEIADPIREDAAETLEYLRSEDVTLKIISGDNPVTVSHIAHQAGFADYQSYIDCSKVSDEELEALAEDTAIFGRVSPHQKKLLIQTLNANGHTTAMTGDGVNDILALREADCSIVMAEGDPATRQIANLVLMDSEFKDIPE,failed
18,MSCCIANAIRWDVSLLIHRSMSSSMSSVQPTSPVSDSPSLGEMHASVAVSRRGHWGFRLLAFLGPGYMVSVGYMDPGNWATGLAGGSRFGYMLLSVILLSNVMAIVLQALAARLGIASDMDLAQACRARYSRGTNLALWAVCELAIIACDLAEVIGTAIALNLLLGVPIILGAVITAVDVVLVLLLMHRGFRALEAFVIALLLVIFGCFVVQIVLAAPPLQEVLGGFVPRWQVVADPQALYLAIGIVGATVMPHNLYLHSSIVQTRAYPRTPVGRRSALRWAVADSTLALMLALFINASILILAAAVFHAQHHFDVEEIEQAYQLLAPVLGVGVAATLFATALLASGINSTVTATLAGQIVMEGFLRLRLRPWLRRVLTRGLAIVPVIVVVALYGEQGTGRLLLLSQVILSMQLPFAVIPLLRCVADRKVMGALVAPRWLMVVAWLIAGVIVVLNVKLLGDYAVHLMVGVSD,failed
19,MQTIYRLKEPQIDREEDVRTIIQTFLFQFSEKAYGGPSFNRPACCFAPHIYGAGKTFVGQNFSAYLNIFAERECSNAQTFQQLHSSNDNPQPSELKVPWKHFAEKTLSVCFKLEESFSDAPFPSFRKALMYNIILNS,not failed
